Measured values from patent publication US20260167721A1 (ABLEXIS, published 2026).

Assays:
[1] = target: T1, recombinant human CD3 epsilon/gamma heterodimer (human, UniProt P07766 23-126; P09693 23-116); assay: Octet BLI, mAb on FAB2G sensor, hCD3 E/G 200-50 nM; R^2 1.00
T1 construct: Recombinant protein in solution (200-50 nM) in the Octet assay; also called hCD3 E/G
Procedure: Samples were evaluated by flow cytometry analysis against Jurkat and human Pan-T cells (FIG. 1B) as well as by Octet against recombinant human CD3 proteins to evaluate apparent affinities and binding off-rates (Table 6, infra).

[2] = target: T2, recombinant human CD3 epsilon/delta heterodimer (human, UniProt P07766 23-126; P04234 22-105); assay: Octet BLI, mAb on FAB2G sensor, hCD3 E/D 200-50 nM; R^2 1.00
T2 construct: Recombinant protein in solution (200-50 nM) in the Octet assay; also called hCD3 E/D; human CD3E/D
T2 sequence (P07766 23-126, stated change not applied, chain 1 of 2): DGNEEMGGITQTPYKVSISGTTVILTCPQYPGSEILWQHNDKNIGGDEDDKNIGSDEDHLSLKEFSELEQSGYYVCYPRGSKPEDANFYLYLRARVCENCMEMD
T2 sequence (P04234 22-105, stated change not applied, chain 2 of 2): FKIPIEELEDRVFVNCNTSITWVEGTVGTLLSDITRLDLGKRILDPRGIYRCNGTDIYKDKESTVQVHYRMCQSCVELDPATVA

[3] = target: T2, recombinant human CD3 epsilon/delta …; assay: Octet BLI, mAb on FAB2G sensor, hCD3 E/D 200-50 nM; R^2 0.99
[4] = target: T3, CD33 on KILR-HL60 cells (UniProt P20138 18-364, limits assumed); assay: flow cytometry on KILR-HL60 (CD33 expressing) cells, antibody at 10 ug/ml
T3 construct: whole, on cells; Target of the gemtuzumab arm; also called CD33 expressing cells
T3 sequence (P20138 18-364 limits assumed): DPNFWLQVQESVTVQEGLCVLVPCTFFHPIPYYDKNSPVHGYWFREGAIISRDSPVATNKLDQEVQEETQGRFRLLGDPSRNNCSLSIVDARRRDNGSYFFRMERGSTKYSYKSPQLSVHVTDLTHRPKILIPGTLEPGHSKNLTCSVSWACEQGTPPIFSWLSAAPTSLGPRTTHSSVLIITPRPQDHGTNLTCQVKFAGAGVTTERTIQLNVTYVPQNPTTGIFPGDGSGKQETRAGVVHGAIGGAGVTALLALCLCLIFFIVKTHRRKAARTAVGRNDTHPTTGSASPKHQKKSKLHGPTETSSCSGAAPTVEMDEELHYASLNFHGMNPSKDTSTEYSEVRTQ

[5] = target: T3, CD33 on KILR-HL60 cells; assay: flow cytometry on KILR-HL60 (CD33 expressing) cells, antibody at 1 ug/ml

T1 sequence (P07766 23-126, chain 1 of 2): as the sequence (P07766 23-126, stated change not applied, chain 1 of 2) above
T1 sequence (P09693 23-116, chain 2 of 2): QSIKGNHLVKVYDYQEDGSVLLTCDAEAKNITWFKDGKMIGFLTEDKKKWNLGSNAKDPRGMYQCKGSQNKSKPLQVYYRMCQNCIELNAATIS

Binder	Kd [1]	Response [1]	koff [1]	kon [1]	Kd [2]	Response [2]	koff [2]	kon [2]	Kd [3]	Response [3]	koff [3]	kon [3]	flow cytometry signal [4]	flow cytometry signal [5]
ABL-CD3-6 (antibody, V domains shown, Chimeric hybridoma mAb: human V, CH1, upper hinge; mouse middle hinge, CH2, CH3) VH: EVQLVDSGGGLVKPGGSLRLSCAASGFTFSSYSMNWVRQAPGKGLEWVSSISSRGSYRNYADSVKGRFTISRDNAKNSLYLQMNSLRAEDTAVYYCARDRRELLLDCWGQGTLVTVSS VL: SYELTQPPSVSVSPGQTARITCSGDALPKKYAYWYQQKSGQAPVLVIYEDSKRPSGIPERFSGSSSGTMATLTISGAQVEDEADYYCYSTDSSGNHSWVFGGGTKLTVL	138 nM	0.17	0.0779 s⁻¹	566000 M⁻¹ s⁻¹	69.7 nM	0.3	0.0333 s⁻¹	477000 M⁻¹ s⁻¹						
ABL-CD3-25 (antibody, V domains shown, Chimeric hybridoma mAb: human V, CH1, upper hinge; mouse middle hinge, CH2, CH3) VH: EVHLVESGGGLVKPGGSLRLSCAASGFTFSSYSMNWVRQAPGKGLEWVSSISSSSTYIYYADSVKGRFTISRDNAKNSLYLQMNSLRAEDTAVYYCAREPRTLGMDYWGQGILVTVSS VL: NFMLTQPHSVSESPGKTVTISCTRSSGSIASNYVQWYQQRPGSSPTTVIYEDNHRPSGVPDRFSGSIDSSSNSASLTISGLKTEDEADYFCQSFDSSNRVFGGGTKLTVL	11.7 nM	1.27	0.00113 s⁻¹	96600 M⁻¹ s⁻¹					8.56 nM	1.32	0.000933 s⁻¹	109000 M⁻¹ s⁻¹		
ABL-CD3-15 (antibody, V domains shown, Chimeric hybridoma mAb: human V, CH1, upper hinge; mouse middle hinge, CH2, CH3) VH: EVQLVESGGGLVKPGGSLRLSCAASGFNCSSYSMNWVRQAPGKGLEWVSSISRSSNYIYYADSVKGRFSISRDDAKNSLYLQMNSLRAEDTAVYYCARERWIQLYSDYWGQGILVTVSS VL: NFMLTQPHSVSESPGKTVTISCTRSSGSIASNYVQWYQQRPGSSPTTVIYEDNQRPSGVPDRFSGSIDSSSNSASLTISGLKTEDEADYYCQSYDSSNRVFGGGTKLTVL	6.54 nM	0.83	0.00113 s⁻¹	173000 M⁻¹ s⁻¹					1.62 nM	0.93	0.000276 s⁻¹	171000 M⁻¹ s⁻¹		
CD3 × CD33-BspAb65 (bispecific antibody) scFv-Fc: NFMLTQPHSVSESPGKTVTIACTRSSGSIASNYVQWYQQRPGSSPTTVIYEDNQRPSGVPDRFSGSIDSSSNSASLTISGLKTEDEADYYCQSYDSSNQVFGCGTKLTVLGGGGSGGGGSGGGGSGGGGSQVTLKESGPGILQPSQTLSLTCSFSGFSLSTFGMGVGWIRQPSGKCLEWLAHIWWDDDKYYNPALKSRLTISKDTSKNQVFLKIANVDTADTATYYCARLGYYPYWFFDVWGTGTTVTVSSGGGGSDKTHTCPPCPAPEFEGGPSVFLFPPKPKDTLMISRTPEVTCVVVDVSHEDPEVKFNWYVDGVEVHNAKTKPREEQYNSTYRVVSVLTVLHQDWLNGKEYKCKVSNKALPASIEKTISKAKGQPREPQVYTLPPCREEMTKNQVSLWCLVKGFYPSDIAVEWESNGQPENNYKTTPPVLDSDGSFFLYSKLTVDKSRWQQGNVFSCSVMHEALHNHYTQKSLSLSPGK heavy: EVQLVQSGAEVKKPGSSVKVSCKASGYTITDSNIHWVRQAPGQSLEWIGYIYPYNGGTDYNQKFKNRATLTVDNPTNTAYMELSSLRSEDTAFYYCVNGNPWLAYWGQGTLVTVSSASTKGPSVFPLAPSSKSTSGGTAALGCLVKDYFPEPVTVSWNSGALTSGVHTFPAVLQSSGLYSLSSVVTVPSSSLGTQTYICNVNHKPSNTKVDKRVEPKSCDKTHTCPPCPAPEFEGGPSVFLFPPKPKDTLMISRTPEVTCVVVDVSHEDPEVKFNWYVDGVEVHNAKTKPREEQYNSTYRVVSVLTVLHQDWLNGKEYKCKVSNKALPASIEKTISKAKGQPREPQVCTLPPSREEMTKNQVSLSCAVKGFYPSDIAVEWESNGQPENNYKTTPPVLDSDGSFFLVSKLTVDKSRWQQGNVFSCSVMHEALHNRFTQKSLSLSPGK light: DIQLTQSPSTLSASVGDRVTITCRASESLDNYGIRFLTWFQQKPGKAPKLLMYAASNQGSGVPSRFSGSGSGTEFTLTISSLQPDDFATYYCQQTKEVPWSFGQGTKVEVKRTVAAPSVFIFPPSDEQLKSGTASVVCLLNNFYPREAKVQWKVDNALQSGNSQESVTEQDSKDSTYSLSSTLTLSKADYEKHKVYACEVTHQGLSSPVTKSFNRGEC													605000	533000
